Data from patent US20180305438A1 (ACCELERON PHARMA, published 2018).

Assays:
Assay in all cases: Biacore (SPR)
[1] = molecular target: T1, hBMP7 (human, UniProt P18075 293-431)
T1 sequence (looked up): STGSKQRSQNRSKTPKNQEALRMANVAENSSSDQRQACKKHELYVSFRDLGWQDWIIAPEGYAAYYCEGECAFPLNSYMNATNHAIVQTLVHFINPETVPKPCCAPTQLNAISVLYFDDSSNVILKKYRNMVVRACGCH

[2] = molecular target: hBMP2 (human, UniProt P12643 283-396)
[3] = molecular target: T2, hBMP4 (human, UniProt P12644 293-408)
T2 sequence (looked up): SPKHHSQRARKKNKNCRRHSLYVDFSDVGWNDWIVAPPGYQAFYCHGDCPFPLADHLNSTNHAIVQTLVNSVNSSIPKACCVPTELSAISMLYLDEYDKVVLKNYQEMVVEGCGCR

Sequence of hBMP2 (P12643 283-396 limits assumed): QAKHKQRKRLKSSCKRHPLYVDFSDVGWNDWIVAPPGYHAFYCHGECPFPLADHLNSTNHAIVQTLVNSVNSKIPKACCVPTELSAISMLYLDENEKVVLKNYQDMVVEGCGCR

binding result [1]: binds
Kd [2]: 2.43 nM
Kd [3]: 0.947 nM
B1: mALK3(24-152)-mFc derived from HEK 293 cells (Fc fusion)
chain: GAQNLDSMLHGTGMKSDLDQKKPENGVTLAPEDTLPFLKCYCSGHCPDDAINNTCITNGHCFAIIEEDDQGETTLTSGCMKYEGSDFQCKDSPKAQLRRTIECCRTNLCNQYLQPTLPPVVIGPFFDGSIRTGGGEPRVPITQNPCPPLKECPPCAAPDLLGGPSVFIFPPKIKDVLMISLSPMVTCVVVDVSEDDPDVQISWFVNNVEVHTAQTQTHREDYNSTLRVVSALPIQHQDWMSGKEFKCKVNNRALPSPIEKTISKPRGPVRAPQVYVLPPPAEEMTKKEFSLTCMITGFLPAEIAVDWTSNGRTEQNYKNTATVLDSDGSYFMYSKLRVQKSTWERGSLFACSVVHEGLHNHLTTKTISRSLGK
notes: The Gly-Ala at 23-24 may also be absent, since the main species of the human construct starts at Gln; also called mALK3-mFc
